IntAct's records for PubMed 29187380

Assays:
[1] = molecular target: vac14_human VAC14 (UniProt Q08AM6)
[2] = molecular target: dock7_human DOCK7 (UniProt Q96N67)
UniProt Q96N67, sequence (Q96N67 whole entry): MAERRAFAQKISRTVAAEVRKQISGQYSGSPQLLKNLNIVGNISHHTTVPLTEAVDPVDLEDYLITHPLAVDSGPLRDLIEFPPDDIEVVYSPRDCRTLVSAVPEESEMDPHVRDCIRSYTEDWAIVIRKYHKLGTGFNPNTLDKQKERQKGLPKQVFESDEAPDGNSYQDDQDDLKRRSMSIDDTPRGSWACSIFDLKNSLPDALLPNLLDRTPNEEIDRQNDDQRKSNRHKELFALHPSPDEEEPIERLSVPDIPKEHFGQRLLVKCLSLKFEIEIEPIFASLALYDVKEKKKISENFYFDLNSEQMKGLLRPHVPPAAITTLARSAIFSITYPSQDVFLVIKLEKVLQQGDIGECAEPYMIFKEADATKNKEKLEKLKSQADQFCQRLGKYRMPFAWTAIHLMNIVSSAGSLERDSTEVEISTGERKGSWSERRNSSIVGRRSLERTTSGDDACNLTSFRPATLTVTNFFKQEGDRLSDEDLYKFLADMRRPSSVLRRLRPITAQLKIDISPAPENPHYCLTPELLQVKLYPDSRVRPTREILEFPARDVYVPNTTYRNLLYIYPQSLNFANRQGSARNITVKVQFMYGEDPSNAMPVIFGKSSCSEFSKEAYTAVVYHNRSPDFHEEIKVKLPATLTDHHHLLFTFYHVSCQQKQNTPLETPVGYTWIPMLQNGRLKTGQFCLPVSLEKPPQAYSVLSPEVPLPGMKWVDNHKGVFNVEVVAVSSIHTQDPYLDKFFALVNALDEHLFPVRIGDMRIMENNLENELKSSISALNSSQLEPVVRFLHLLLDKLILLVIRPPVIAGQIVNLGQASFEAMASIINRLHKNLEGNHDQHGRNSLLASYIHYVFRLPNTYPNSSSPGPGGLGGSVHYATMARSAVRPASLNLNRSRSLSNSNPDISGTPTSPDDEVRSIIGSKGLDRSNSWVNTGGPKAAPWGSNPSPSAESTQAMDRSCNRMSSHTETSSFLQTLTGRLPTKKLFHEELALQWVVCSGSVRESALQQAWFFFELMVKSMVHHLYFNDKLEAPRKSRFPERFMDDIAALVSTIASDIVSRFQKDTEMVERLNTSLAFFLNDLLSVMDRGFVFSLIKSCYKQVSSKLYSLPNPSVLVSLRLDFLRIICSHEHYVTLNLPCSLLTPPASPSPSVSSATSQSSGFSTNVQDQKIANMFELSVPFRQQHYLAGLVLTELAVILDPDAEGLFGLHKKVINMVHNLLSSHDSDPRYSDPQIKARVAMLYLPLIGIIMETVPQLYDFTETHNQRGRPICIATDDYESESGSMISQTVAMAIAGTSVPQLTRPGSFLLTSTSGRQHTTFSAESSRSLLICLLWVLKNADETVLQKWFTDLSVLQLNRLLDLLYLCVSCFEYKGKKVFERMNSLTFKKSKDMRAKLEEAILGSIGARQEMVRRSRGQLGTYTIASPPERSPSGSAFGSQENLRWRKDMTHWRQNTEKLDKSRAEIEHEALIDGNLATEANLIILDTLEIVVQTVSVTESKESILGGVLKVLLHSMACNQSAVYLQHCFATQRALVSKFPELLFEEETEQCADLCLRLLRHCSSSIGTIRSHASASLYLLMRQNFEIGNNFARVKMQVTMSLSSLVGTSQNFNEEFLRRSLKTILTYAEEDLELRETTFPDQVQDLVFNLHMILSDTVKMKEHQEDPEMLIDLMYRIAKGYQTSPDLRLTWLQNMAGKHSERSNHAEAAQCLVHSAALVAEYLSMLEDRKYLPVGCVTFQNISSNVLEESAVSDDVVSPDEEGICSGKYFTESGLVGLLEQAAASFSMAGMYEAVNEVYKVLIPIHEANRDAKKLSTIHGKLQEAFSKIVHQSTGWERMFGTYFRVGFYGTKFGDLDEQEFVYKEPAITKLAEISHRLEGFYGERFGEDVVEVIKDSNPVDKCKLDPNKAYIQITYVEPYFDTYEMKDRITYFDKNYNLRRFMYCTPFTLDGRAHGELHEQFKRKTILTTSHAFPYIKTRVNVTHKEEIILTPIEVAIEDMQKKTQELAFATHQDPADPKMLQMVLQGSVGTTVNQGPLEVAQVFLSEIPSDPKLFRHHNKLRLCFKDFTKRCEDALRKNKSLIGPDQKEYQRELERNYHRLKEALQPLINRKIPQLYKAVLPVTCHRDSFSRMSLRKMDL

UniProt Q08AM6, sequence (Q08AM6 whole entry): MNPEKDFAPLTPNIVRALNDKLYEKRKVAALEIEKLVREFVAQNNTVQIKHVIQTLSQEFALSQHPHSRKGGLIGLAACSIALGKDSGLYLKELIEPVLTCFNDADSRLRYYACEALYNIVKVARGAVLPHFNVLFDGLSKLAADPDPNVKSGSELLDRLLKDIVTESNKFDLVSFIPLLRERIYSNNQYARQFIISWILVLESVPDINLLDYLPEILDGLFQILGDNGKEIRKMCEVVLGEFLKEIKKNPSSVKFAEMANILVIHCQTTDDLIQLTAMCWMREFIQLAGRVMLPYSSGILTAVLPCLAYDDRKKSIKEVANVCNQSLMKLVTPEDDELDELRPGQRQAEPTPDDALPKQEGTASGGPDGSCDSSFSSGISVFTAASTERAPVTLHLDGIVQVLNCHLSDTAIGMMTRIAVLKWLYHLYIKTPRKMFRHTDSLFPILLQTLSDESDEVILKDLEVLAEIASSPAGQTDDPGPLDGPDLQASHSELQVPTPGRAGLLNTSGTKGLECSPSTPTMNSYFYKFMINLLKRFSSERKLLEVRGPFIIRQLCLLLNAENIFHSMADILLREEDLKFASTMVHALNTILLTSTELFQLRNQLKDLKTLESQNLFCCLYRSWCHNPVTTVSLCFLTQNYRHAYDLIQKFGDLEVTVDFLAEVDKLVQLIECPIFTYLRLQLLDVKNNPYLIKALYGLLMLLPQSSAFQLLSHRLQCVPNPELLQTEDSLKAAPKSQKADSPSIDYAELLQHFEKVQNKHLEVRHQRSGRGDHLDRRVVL

effect of a mutation on the interaction [1]	effect of a mutation on the interaction [2]	Substance
decreasing interaction strength	decreasing interaction strength	Neurobeachin-like protein 2 (Homo sapiens), Q6ZNJ1 G2290W;E2294G
decreasing interaction strength	disrupting interaction strength	Neurobeachin-like protein 2 (Homo sapiens), Q6ZNJ1 P2100L

Continued, substance first:

Substance	effect of a mutation on the interaction [1]	effect of a mutation on the interaction [2]
Neurobeachin-like protein 2 (Homo sapiens), Q6ZNJ1 M2080K	decreasing interaction strength	with no effect
Neurobeachin-like protein 2 (Homo sapiens), Q6ZNJ1 R2172H	with no effect	disrupting interaction strength
Neurobeachin-like protein 2 (Homo sapiens), Q6ZNJ1 S2269L	increasing interaction strength	with no effect
